Measurements as given in publication PMC9352551, “Energetic determinants of animal cell polarity regulator Par-3 interaction with the Par complex” (The Journal of Biological Chemistry, 2022).

B1: GST-Par-3 PDZ2 (domain or fragment, Drosophila, UniProt O96782 444-533, looked up)
chain: QIMLKKGPNGLGFSVTTRDNPAGAHCPIYIKNILPRGAAIEDGRLKPGDRLLEVDGTPMTGKTQTDVVAILRGMPAGATVRIVVSRQQEL
notes: Par-3 (Bazooka), Drosophila, residues 444-533; From pGEX; also called GST fused Par-3 PDZ2
B2: Par-3 PDZ2 (his-purified, soluble) (domain or fragment, Drosophila, UniProt O96782 444-533, looked up)
chain: B1 chain
notes: Par-3 (Bazooka), Drosophila, residues 444-533; From pET19; also called soluble PDZ2; source: E. coli BL21 (DE3), his-purified
B3: MBP-Par-3 PDZ1-APMΔPDZ2 (domain or fragment, Drosophila, UniProt O96782 309-987, looked up)
chain: DGEMLLIINEYGSPLGLTALPDKEHGGGLLVQHVEPGSRAERGQLRRDDRILEINGIKLIGLTESQVQEQLRRALESSELRVRVLRGDRNRRQQRDSKVADMVEVATVSPTRKPHAAPVGTSLQVANTAEQADQPAEKSAGVAVAPSVAPPAVPAAAAPAPPIPVQKSSSARSLFTHQQQSQLNESQHFIDAGSESAASNDSLPPSSNSWHSREELTLHIPVHDTEKAGLGVSVKGKTCSNLNASGSSASSGSNGLMKHDGDLGIFVKNVIHGGAASRDGRLRMNDQLLSVNGVSLRGQNNAEAMETLRRAMVNTPGKHPGTITLLVGRKILRSASSSDILDHSNSHSHSHSNSSGGSNSNGSGNNNNSSSNASDNSGATVIYLSPEKREQRCNGGGGGGSAGNEMNRWSNPVLDRLTGGICSSNSAQPSSQQSHQQQPHPSQQQQQQRRLPAAPVCSSAALRNESYYMATNDNWSPAQMHLMTAHGNTALLIEDDAEPMSPTLPARPHDGQHCNTSSANPSQNLAVGNQGPPINTVPGTPSTSSNFDATYSSQLSLETNSGVEHFSRDALGRRSISEKHHA
notes: Par-3 (Bazooka), Drosophila, residues 309-987 with residues 437-533 deleted; From pMAL; construct as in PMID 32084408; not shown: MBP, N-terminal, kept; His tag, C-terminal, kept
B4: GST-Par-3 PDZ2-3 (domain or fragment, Drosophila, UniProt O96782 444-741, looked up)
chain: QIMLKKGPNGLGFSVTTRDNPAGAHCPIYIKNILPRGAAIEDGRLKPGDRLLEVDGTPMTGKTQTDVVAILRGMPAGATVRIVVSRQQELAEQADQPAEKSAGVAVAPSVAPPAVPAAAAPAPPIPVQKSSSARSLFTHQQQSQLNESQHFIDAGSESAASNDSLPPSSNSWHSREELTLHIPVHDTEKAGLGVSVKGKTCSNLNASGSSASSGSNGLMKHDGDLGIFVKNVIHGGAASRDGRLRMNDQLLSVNGVSLRGQNNAEAMETLRRAMVNTPGKHPGTITLLVGRKILRSAS
notes: Par-3 (Bazooka), Drosophila, residues 444-741; From pGEX
B5: GST-Par-3 PDZ1-2 (domain or fragment, Drosophila, UniProt O96782 309-533, looked up)
chain: DGEMLLIINEYGSPLGLTALPDKEHGGGLLVQHVEPGSRAERGQLRRDDRILEINGIKLIGLTESQVQEQLRRALESSELRVRVLRGDRNRRQQRDSKVADMVEVATVSPTRKPHAAPVGTSLQVANTRKLGRKIQIMLKKGPNGLGFSVTTRDNPAGAHCPIYIKNILPRGAAIEDGRLKPGDRLLEVDGTPMTGKTQTDVVAILRGMPAGATVRIVVSRQQEL
notes: Par-3 (Bazooka), Drosophila, residues 309-533; From pGEX
B6: GST-Par-3 BR-PDZ2 (domain or fragment, Drosophila, UniProt O96782 426-533, looked up)
chain: PVGTSLQVANTRKLGRKIQIMLKKGPNGLGFSVTTRDNPAGAHCPIYIKNILPRGAAIEDGRLKPGDRLLEVDGTPMTGKTQTDVVAILRGMPAGATVRIVVSRQQEL
notes: Par-3 (Bazooka), Drosophila, residues 426-533 (basic region and PDZ2); From pGEX
B7: GST-Par-3 PDZ3 (domain or fragment, Drosophila, UniProt O96782 616-741, looked up)
chain: HSREELTLHIPVHDTEKAGLGVSVKGKTCSNLNASGSSASSGSNGLMKHDGDLGIFVKNVIHGGAASRDGRLRMNDQLLSVNGVSLRGQNNAEAMETLRRAMVNTPGKHPGTITLLVGRKILRSAS
notes: Par-3 (Bazooka), Drosophila, residues 616-741; From pGEX; also called GST fused Par-3 PDZ3
B8: Par-3 PDZ3 (his-purified, soluble) (domain or fragment, Drosophila, UniProt O96782 616-741, looked up)
chain: B7 chain
notes: Par-3 (Bazooka), Drosophila, residues 616-741; From pET19; source: E. coli BL21 (DE3), his-purified
B9: GST-Par-3 PDZ1-3 (domain or fragment, Drosophila, UniProt O96782 309-741, looked up)
chain: DGEMLLIINEYGSPLGLTALPDKEHGGGLLVQHVEPGSRAERGQLRRDDRILEINGIKLIGLTESQVQEQLRRALESSELRVRVLRGDRNRRQQRDSKVADMVEVATVSPTRKPHAAPVGTSLQVANTRKLGRKIQIMLKKGPNGLGFSVTTRDNPAGAHCPIYIKNILPRGAAIEDGRLKPGDRLLEVDGTPMTGKTQTDVVAILRGMPAGATVRIVVSRQQELAEQADQPAEKSAGVAVAPSVAPPAVPAAAAPAPPIPVQKSSSARSLFTHQQQSQLNESQHFIDAGSESAASNDSLPPSSNSWHSREELTLHIPVHDTEKAGLGVSVKGKTCSNLNASGSSASSGSNGLMKHDGDLGIFVKNVIHGGAASRDGRLRMNDQLLSVNGVSLRGQNNAEAMETLRRAMVNTPGKHPGTITLLVGRKILRSAS
notes: Par-3 (Bazooka), Drosophila, residues 309-741; From pGEX; also called Par-3 fragment containing its three PDZ domains
B10: GST-Par-3 BR-PDZ2-3 (domain or fragment, Drosophila, UniProt O96782 426-741, looked up)
chain: PVGTSLQVANTRKLGRKIQIMLKKGPNGLGFSVTTRDNPAGAHCPIYIKNILPRGAAIEDGRLKPGDRLLEVDGTPMTGKTQTDVVAILRGMPAGATVRIVVSRQQELAEQADQPAEKSAGVAVAPSVAPPAVPAAAAPAPPIPVQKSSSARSLFTHQQQSQLNESQHFIDAGSESAASNDSLPPSSNSWHSREELTLHIPVHDTEKAGLGVSVKGKTCSNLNASGSSASSGSNGLMKHDGDLGIFVKNVIHGGAASRDGRLRMNDQLLSVNGVSLRGQNNAEAMETLRRAMVNTPGKHPGTITLLVGRKILRSAS
notes: Par-3 (Bazooka), Drosophila, residues 426-741; From pGEX

How the values were obtained:
Settings in all cases: both partners purified
[1] = target: T1, Par complex (his-Par-6, aPKC) (Drosophila, UniProt O97111 1-351; A1Z9X0 1-606); experiment: supernatant depletion assay; GST-fused protein on glutathione agarose resin (solid phase, 'ligand'); soluble protein ('receptor') left in the supernatant at equilibrium quantified on a Coomassie gel; 1 h at 20 °C; 10 mM Hepes pH 7.5, 100 mM NaCl, 1 mM DTT, 200 μM ATP, 5 mM MgCl2, 0.1% Tween-20; single-site equation; 'apparent' for Par-3 variants that could bind more than one Par complex; ATP replaced with ADP in one …
T1 construct: Par-6, Drosophila, residues 1-351; atypical protein kinase C (aPKC), Drosophila, residues 1-606; Construct as in PMID 32084408; also called full Par complex; source: HEK 293F, transfected (pCMV), purified (Ni-NTA or cobalt resin, Source Q anion exchange)
T1 sequence (looked up) 1: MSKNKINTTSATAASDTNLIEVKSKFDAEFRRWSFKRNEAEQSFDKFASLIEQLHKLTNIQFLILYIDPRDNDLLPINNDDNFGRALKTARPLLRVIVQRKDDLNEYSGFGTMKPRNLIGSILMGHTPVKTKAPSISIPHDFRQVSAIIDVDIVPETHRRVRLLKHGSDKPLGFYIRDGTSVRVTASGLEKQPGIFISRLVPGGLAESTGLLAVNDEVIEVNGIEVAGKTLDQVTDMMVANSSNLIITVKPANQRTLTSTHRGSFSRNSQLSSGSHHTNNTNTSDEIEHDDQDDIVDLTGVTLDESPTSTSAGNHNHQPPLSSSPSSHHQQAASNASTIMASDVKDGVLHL
T1 sequence (looked up) 2: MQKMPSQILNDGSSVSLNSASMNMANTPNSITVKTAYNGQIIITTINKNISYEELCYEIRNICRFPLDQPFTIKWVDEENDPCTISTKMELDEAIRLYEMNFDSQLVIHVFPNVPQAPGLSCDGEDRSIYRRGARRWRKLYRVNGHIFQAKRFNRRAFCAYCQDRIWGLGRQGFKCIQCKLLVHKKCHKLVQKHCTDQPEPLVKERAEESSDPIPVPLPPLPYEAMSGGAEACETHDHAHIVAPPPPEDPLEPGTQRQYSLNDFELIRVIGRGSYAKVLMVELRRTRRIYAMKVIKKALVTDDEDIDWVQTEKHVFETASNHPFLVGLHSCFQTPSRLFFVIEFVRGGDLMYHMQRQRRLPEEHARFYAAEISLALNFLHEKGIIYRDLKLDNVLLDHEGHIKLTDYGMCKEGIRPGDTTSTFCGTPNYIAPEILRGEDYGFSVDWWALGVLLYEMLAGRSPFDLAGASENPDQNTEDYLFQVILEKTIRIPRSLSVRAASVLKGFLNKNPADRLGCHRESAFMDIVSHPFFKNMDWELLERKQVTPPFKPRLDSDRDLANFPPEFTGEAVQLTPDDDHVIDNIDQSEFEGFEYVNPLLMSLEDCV

[2] = target: T2, aPKC KD-PBM (Drosophila, UniProt A1Z9X0 259-606); experiment: as above
T2 construct: From pBH; also called his aPKC kinase domain-PBM; aPKC kinase domain–PBM; source: E. coli BL21 (DE3), his-purified (Ni-NTA) partially under denaturing conditions (8 M urea)
T2 sequence (looked up): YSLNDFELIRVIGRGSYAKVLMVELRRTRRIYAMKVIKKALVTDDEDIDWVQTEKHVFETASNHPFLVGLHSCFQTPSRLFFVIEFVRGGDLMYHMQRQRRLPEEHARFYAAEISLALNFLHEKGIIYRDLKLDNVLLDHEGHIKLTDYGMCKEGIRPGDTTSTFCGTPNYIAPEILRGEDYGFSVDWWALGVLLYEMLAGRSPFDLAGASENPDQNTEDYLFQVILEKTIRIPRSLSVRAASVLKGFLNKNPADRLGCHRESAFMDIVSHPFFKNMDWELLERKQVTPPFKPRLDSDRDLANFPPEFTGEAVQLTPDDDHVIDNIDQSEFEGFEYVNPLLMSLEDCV

[3] = target: T2, aPKC KD-PBM; experiment: pull-down; competition: GST-Par-3 PDZ2 or PDZ3 on glutathione resin with aPKC KD-PBM and the other PDZ domain as soluble competitor; room temperature, 30 to 60 min; 10 mM Hepes pH 7.5, 100 mM NaCl, 1 mM DTT, 200 μM ATP, 5 mM MgCl2, 0.1% Tween-20; Coomassie gel
[4] = target: T1, Par complex (his-Par-6, aPKC); experiment: supernatant depletion assay; MBP-Par-3 (C-terminal his-tag, his-purified) on amylose resin (solid phase); soluble protein left in the supernatant quantified on a Coomassie gel; 10 min at 20 °C; 10 mM Hepes pH 7.5, 100 mM NaCl, 1 mM DTT, 200 μM ATP, 5 mM MgCl2, 0.1% Tween-20; 'apparent'

Row | Binder | binding result [1] | binding result [2] | binding result [3] | binding result [4]
1 | B1 | binds | binds |  | 
2 | B2 |  |  | binds | 
3 | B3 |  |  |  | binds
4 | B4 | binds | binds |  | 
5 | B5 | binds | binds |  | 
6 | B6 | binds | binds |  | 
7 | B7 | binds | binds |  | 
8 | B8 |  |  | binds | 
9 | B9 | binds |  |  | 
10 | B10 | binds | binds |  | 
